B1: Protein phosphatase 2C homolog 4 (Schizosaccharomyces pombe (strain ATCC 38366 / 972)), O14156 (parent)
chain: MSIRFLKRLRAPLYIQNAYCSKNYFYRSFIQYYSPSNGPYLKISMNKAPQSLGLCTARGDSPTNQDRMAYGYLNNLKDTTNRDSPFFYGLFDGHGGTECSEFLSTNLGKIIENQDLNDTEKILKEVHSVGGYMAGLKPPFSLRTVLQSRDEDLLWRARLYYSFLQADMDYLTNYARPSPDSAVPGAVGTVAIITSKNNLSYWESDSYIIHLAHVGDTRALLCDSRTGRAHRLTFQHHPADVEEARRLRRYNMGFSRDSFGQKRFAWVANTRSFGDGYKLKKLGVVAEPQLTSIHSLRDDWSFLTLLSDGITDVVSDDEVVDIIKLSESPQDAANNIIRYAQNVGAVDDITCLVVRLPGWKKRTINDFTKNLRLEKSAYHPRRS
partner: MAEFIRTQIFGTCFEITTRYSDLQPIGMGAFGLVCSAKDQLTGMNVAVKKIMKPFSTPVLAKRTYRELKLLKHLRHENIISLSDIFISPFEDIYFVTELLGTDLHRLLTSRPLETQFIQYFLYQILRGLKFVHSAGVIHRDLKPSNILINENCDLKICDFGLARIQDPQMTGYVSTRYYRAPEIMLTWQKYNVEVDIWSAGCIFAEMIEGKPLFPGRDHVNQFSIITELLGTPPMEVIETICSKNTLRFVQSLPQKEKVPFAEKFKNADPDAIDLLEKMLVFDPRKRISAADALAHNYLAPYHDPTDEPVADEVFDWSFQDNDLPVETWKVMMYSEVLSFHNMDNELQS

Legend:
Conditions in all cases: with hog1_schpo sty1, Q09892
hog1_schpo sty1, Q09892 [1] = variants of: B1
hog1_schpo sty1, Q09892 [2] = variants of: B1; remark: listed apart in the source
hog1_schpo sty1, Q09892 [3] = variants of: B1; remark: listed apart in the source

MSIRFLKALRAPLYIQNAYCSKNYFYRSFIQYYSPSNGPYLKISMNKAPQSLGLCTARGDSPTNQDRMAYGYLNNLKDTTNRDSPFFYGLFDGHGGTECSEFLSTNLGKIIENQDLNDTEKILKEVHSVGGYMAGLKPPFSLRTVLQSRDEDLLWRARLYYSFLQADMDYLTNYARPSPDSAVPGAVGTVAIITSKNNLSYWESDSYIIHLAHVGDTRALLCDSRTGRAHRLTFQHHPADVEEARRLRRYNMGFSRDSFGQKRFAWVANTRSFGDGYKLKKLGVVAEPQLTSIHSLRDDWSFLTLLSDGITDVVSDDEVVDIIKLSESPQDAANNIIRYAQNVGAVDDITCLVVRLPGWKKRTINDFTKNLRLEKSAYHPRRS [R8A]
effect of a mutation on the interaction (hog1_schpo sty1, Q09892 [1]): disrupting interaction
effect of a mutation on the interaction (hog1_schpo sty1, Q09892 [2]): decreasing interaction

MSIRFLKRLRAPLYIQNAYCSKNYFYASFIQYYSPSNGPYLKISMNKAPQSLGLCTARGDSPTNQDRMAYGYLNNLKDTTNRDSPFFYGLFDGHGGTECSEFLSTNLGKIIENQDLNDTEKILKEVHSVGGYMAGLKPPFSLRTVLQSRDEDLLWRARLYYSFLQADMDYLTNYARPSPDSAVPGAVGTVAIITSKNNLSYWESDSYIIHLAHVGDTRALLCDSRTGRAHRLTFQHHPADVEEARRLRRYNMGFSRDSFGQKRFAWVANTRSFGDGYKLKKLGVVAEPQLTSIHSLRDDWSFLTLLSDGITDVVSDDEVVDIIKLSESPQDAANNIIRYAQNVGAVDDITCLVVRLPGWKKRTINDFTKNLRLEKSAYHPRRS [R27A]
effect of a mutation on the interaction (hog1_schpo sty1, Q09892 [1]): disrupting interaction
effect of a mutation on the interaction (hog1_schpo sty1, Q09892 [3]): decreasing interaction

MSIRFLKRLAAPLYIQNAYCSKNYFYRSFIQYYSPSNGPYLKISMNKAPQSLGLCTARGDSPTNQDRMAYGYLNNLKDTTNRDSPFFYGLFDGHGGTECSEFLSTNLGKIIENQDLNDTEKILKEVHSVGGYMAGLKPPFSLRTVLQSRDEDLLWRARLYYSFLQADMDYLTNYARPSPDSAVPGAVGTVAIITSKNNLSYWESDSYIIHLAHVGDTRALLCDSRTGRAHRLTFQHHPADVEEARRLRRYNMGFSRDSFGQKRFAWVANTRSFGDGYKLKKLGVVAEPQLTSIHSLRDDWSFLTLLSDGITDVVSDDEVVDIIKLSESPQDAANNIIRYAQNVGAVDDITCLVVRLPGWKKRTINDFTKNLRLEKSAYHPRRS [R10A]
effect of a mutation on the interaction (hog1_schpo sty1, Q09892 [1]): disrupting interaction
effect of a mutation on the interaction (hog1_schpo sty1, Q09892 [2]): decreasing interaction

— IntAct's records for PubMed 22139357
